The values below come from PMC6783348.

Broadly, the Kd is a measure of binding affinity in units of concentration. Read a low Kd as a tighter complex.

For the series, the target named is CD8a extracellular domain (Homo sapiens, UniProt P01732 22-182). The experiment in a line: BLI. (In general: BLI is a label-free optical method that tracks binding on a fibre tip over time.)
Sequence of CD8a extracellular domain (P01732 22-182): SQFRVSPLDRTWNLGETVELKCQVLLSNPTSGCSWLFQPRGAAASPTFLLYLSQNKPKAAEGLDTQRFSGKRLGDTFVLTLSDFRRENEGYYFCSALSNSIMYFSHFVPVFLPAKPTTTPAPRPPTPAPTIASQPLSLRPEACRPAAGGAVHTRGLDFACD

B1: A3 (structured_DNA)
DNA: ATCCAGAGTGACGCAGCAACAGAGGTGTAGAAGTACACGTGAACAAGCTTGAAATTGTCTCTGACAGAGGTGGACACGGTGGCTTAGT
Regarding B1, the equilibrium dissociation constant (Kd) worked out at 14.7 ± 0.1 nM.

B2: A8 (structured_DNA)
DNA: ATCCAGAGTGACGCAGCAGCTCGATCGTATAGCCGTGACGCAGCTTGAAATGGGATCGCGTCCACAGTTTTGGACACGGTGGCTTAGT
Consider B2, for which the Kd came out at 5.59 ± 0.11 nM.
